The assay addresses T1, human B7-H3 antigen, recombinant extracellular domain (ECD) (29-461) (human, UniProt Q5ZPR3 29-461).
T1 construct: range 29-461; Expressed in 293F cells as B7-H3-TEV-cFc-His fusion, cut with TEV protease and cleaned over a nickel column to give the human B7-H3 antigen; also called recombinant human B7-H3 antigen; hB7-H3
T1 sequence (looked up): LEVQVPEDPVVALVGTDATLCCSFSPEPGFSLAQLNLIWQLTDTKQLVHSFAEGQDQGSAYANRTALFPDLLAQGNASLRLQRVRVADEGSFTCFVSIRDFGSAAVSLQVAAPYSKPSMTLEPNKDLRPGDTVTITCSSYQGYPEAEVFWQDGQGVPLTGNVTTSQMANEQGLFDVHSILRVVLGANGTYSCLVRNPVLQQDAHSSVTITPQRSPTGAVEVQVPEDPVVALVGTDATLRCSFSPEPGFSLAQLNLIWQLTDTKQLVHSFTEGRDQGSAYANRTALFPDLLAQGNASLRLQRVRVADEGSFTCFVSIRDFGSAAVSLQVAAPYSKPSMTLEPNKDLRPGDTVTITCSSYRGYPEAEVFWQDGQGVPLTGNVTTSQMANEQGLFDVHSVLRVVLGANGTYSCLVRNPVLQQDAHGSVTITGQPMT
In words: ELISA, coated human B7-H3 antigen. As for the experimental part: The binding activity of the 5D9 to B7-H3 antigen was analyzed by ELISA. Human B7-H3 antigens were coated on the 96-well plate and placed at 4° C. overnight. The antibody 5D9 and controls were diluted to 10 μg/mL, followed by 4-fold dilution gradients to generate a total of 8 different concentrations. The diluted samples and the wells coated antigen were incubated for 1h. After washing, HRP (horseradish peroxidase)-labeled goat anti-human IgG (H+L) secondary antibody was added to the plate and incubated for 1h. TMB (3,3′,5,5′-tetramethylbenzidine) solution was then added to each well after washing for chromogenesis. The absorbance was measured at OD₄₅₀ₙₘ with a microplate reader. Taking the logarithmic value of the sample concentration as the X-axis, and the absorbance OD₄₅₀ₙₘ value as the Y-axis, a dose-response curve was drawn to calculate the EC₅₀. The EC₅₀ represents the binding activity of the antibody to B7-H3 antigen. A negative control IgG group and a positive antibody Enoblituzumab control group were meanwhile set in the experiment.

B1: B7-H3 antibody 5D9 (antibody, V domains shown)
VH: QVQLVQSGAEVKKPGSSVKVSCKASGGTFSNYAINWVRQAPGQGLEWMGGIIPLFGTANYAQKFQGRVTITADESTSTAYMELSSLRSDDTAVYYCARDQVVATSGVNFGMDVWGQGTTVTVSS
VL: DIQMTQEPSLTTSPGGTVTLTCRSSTGAVTTSNYANWVQEKPGQAPRGLIGGTNKRAPGTPARFSGSLIGGKAALTITGVQPEDEAIYFCALWYSNLWVFGGGTKLEIK
notes: Expressed as full antibody (heavy and light chain) in 293F cells, protein A purified, detected with anti-human IgG
On to B1, for which the binding result is given as “binds”.

The values above are taken from patent publication US20240343809A1 (EXCELMAB, published 2024).
